Here are results for one molecule from patent US20150148405A1, “Expression Construct for a Lin28-Resistant Let-7 Precursor MicroRNA” (THE JOHNS HOPKINS UNIVERSITY, priority 2012, published 2015).

Common to all, as to format: cell-based, mouse
For experiment [1], the system named is hippocampal pyramidal neurons. The experiment in a line: Endogenous P-body numbers by GW182 immunostaining. The settings on record: 75 min after stimulation; mock 11.36±1.21; p<0.05. The source says:
For fixed cells, confocal images were acquired in 0.3 μm (dendrites) or 1.7 μm (whole cells for arborization) Z sections on an LSM5 Pascal system (Carl Zeiss) using a 63×, 1.4 NA Plan Apochromat oil immersion objective and 2× optical zoom (dendrites) or using a 25×, 0.80 NA Plan-Neofluor multi-immersion objective and 0.7×-1× optical zoom (for whole cells). GFP was excited at 488 nm and emissions collected at 505-530 nm; mCherry was excited at 543 nm and emissions collected above 560 nm. Laser power and exposure time were adjusted to minimize photobleaching and avoid saturation. All experiments were from a minimum of 3 independent cultures and no more than 3 neurons per dish Z-stacks containing the entire neuron or process of interest were analyzed using Imaris 7.0.0 (Bitplane) and ImageJ software. […] The percent colocalization of P-body components was calculated by […]. The percent of colocalized fluorescence was calculated for each P-body component by first summing the aggregate fluorescence values that co-localized with the other P-body marker in ‘spots’, then dividing this quantity by the value of the total fluorescence intensity within the dendrite for that channel, and multiplying by 100. […]

The next experiment relates to mature miRNA. The experiment in a line: miRNA profiling arrays (Taqman Rodent MicroRNA Array A). The settings on record: BDNF 30 min, plus Actinomycin-D. The method, then: Murine hippocampal cultures were preincubated for 10-20 minutes with […] Actinomycin D and either mock- or BDNF- (100 ng/mL) stimulated for 30 minutes before harvesting.
For miRNA arrays, […] of total RNA for each sample was reverse-transcribed with stem-looped Megaplex RT Primers (Applied Biosystems) in a final volume of 7.5 μL according to manufacturer's instructions: preincubation at 4° C. for 5 min; 16° C. for 2 min, 42° C. for 1 min, 50° C. for 1 sec, 40 cycles; 85° C. for 5 min. The entire cDNA RT product (7.5 μk) was subjected to RT-qPCR on an Applied Biosystems 7900HT Fast Real-Time PCR system using Taqman Rodent MicroRNA Array A. Data were compiled in SDS RQ Manager 1.2.1 and analyzed in Data Assist 2.0 (Applied Biosystems); RQ was calculated as 2^−LCtBDNF/2^LCtmock where LCt=(cycle threshold for miRNA of interest)−(cycle threshold for reference control) (Schmittgen and Livak, 2008). Thresholds and cycle threshold (Ct) values were determined using default settings and the maximum allowable Ct value was set at 35.0 inclusive. Data were normalized by arithmetic mean using MammU6 (4395470) and snoRNA202 (4380914) reference RNAs as controls. miRNA array data are reposited with the NCBI Gene Expression Omnibus (GEO). […]

The test system of another experiment is GW182. The experiment can be described thus: Immunopurification of GW182: associated RNA, mRNAs and proteins. The method, then: Proteins and mRNAs associated with P-body component GW182 were isolated through immunoprecipitation of GW182 by modification of previously published protocols (Keene et al., 2006; Moser et al., 2009). Primary cultures of mouse hippocampal neurons (DIV 14-15) were incubated in serum-reduced medium (0.5% B27 supplement) for 2 hours, followed by […] Actinomycin-D for […] and mock or BDNF-stimulation for 30˜60 min. Cell lysates were harvested in polysomal lysis buffer (100 mM KCl, 5 mM MgCl2, 10 mM HEPES pH 7.0, 0.5% NP-40) with protease inhibitor cocktail and freshly added 20 mM EDTA, 1 mM DTT, 100 U/mL RNase inhibitor (RNaseOut, Invitrogen) and 400 μM Vanadyl ribonucleoside complexes (SIGMA). Lysates were centrifuged and the supernatants pre-cleared by one-hour incubation with recombinant protein G beads pre-washed in NT2 buffer (50 mM Tris-HCl pH 7.4, 150 mM NaCl, 1 mM MgCl2, 0.05% NP-40). Antibody coating of protein G beads was carried out with antiserum against GW182 (18033, gift of M. Fritzler) or control isotype-specific serum in NT2 buffer plus protease inhibitor for 4 hours after blocking with NT2 buffer plus 5% BSA and 1 mg/mL heparin for 1 hour. For immunoprecipitation (IP), equal amounts of lysate protein (2-5 mg) was incubated with antibody-coated beads and tumbled for 4 hours at 4° C., followed by washing. RNAs were recovered from GW182 immunoprecipitates by Tri-Reagent as described below. Recovered RNAs were resuspended in nuclease-free water, measured for RNA concentration, and immediately reverse transcribed into cDNA using a combination of random decamers and oligo(dT) primers. RT-qPCR was carried out as described below. To examine proteins co-immunoprecipitated with GW182, the washed IP beads were incubated in sample buffer at 95° C. for 5 minutes and subjected to SDS-PAGE electrophoresis and immunoblotting.

B1: BDNF: brain-derived neurotrophic factor, a neurotrophin used to stimulate hippocampal neurons (protein, UniProt P23560 19-247, looked up)
Neurotrophic factor BDNF …: APMKEANIRGQGGLAYPGVRTHGTLESVNGPKAGSRGLTSLADTFEHVIEELLDEDQKVRPNEENNKDADLYTSRVMLSSQVPLEPPLLFLLEEYKNYLDAANMSMRVRRHSDPARRGELSVCDSISEWVTAADKKTAVDMSGGTVTVLEKVPVSKGQLKQYFYETKCNPMGYTKEGCRGIDKRHWNSQCRTTQSYVRALTMDSKKRIGWRFIRIDTSCVCTLTIKRGR
As for B1, in experiment [1], the “endogenous P-body numbers in individual neuronal dendrites, mean±SEM” value came to 15.48±1.26. Moreover, in the experiment with mature miRNA, the “detectable miRNAs with significantly altered levels decreased to <50%” value turned out to be 10.6% and the “detectable miRNAs with significantly altered levels increased more than 2-fold” value came to 89.4%. In addition, in the experiment on GW182 (co-immunoprecipitation, BDNF 1 hour), the “association of P-body components Ago2 and Dcp1a with GW182” value is “increased the association”. In addition, in the experiment with GW182 (control shRNA conditions), the “GW182-association of mRNAs whose translation is downregulated by BDNF (KCC2, Kv1.1)” value is recorded as “promoted the GW182-association” and the “GW182-association of mRNAs whose translation is upregulated by BDNF (GluR1, CaMKIIu, Homer2)” value is “reduced the GW182-association”.
